The source of these data is patent publication US20240091361A1, “T CELL RECEPTORS TARGETING RAS MUTATIONS AND USES THEREOF” (MEMORIAL SLOAN-KETTERING CANCER CENTER, priority 2021, published 2024).

The target in test [1] is T1, KRAS G12D (10-mer; the same sequence in NRAS G12D and HRAS G12D) peptide on HLA-A*11:01 (human).
T1 peptide: VVVGADGVGK
Kind of test: multimer staining.

Test [2] addresses T2, TAF6 peptide on HLA-A*11:01 (human).
T2 peptide: GATTADGKGK
The test is described as follows: cytokine release.

Test [3] addresses T3, FRPD4 peptide on HLA-A*11:01 (human).
T3 peptide: KSKLADGEGK
The test is described as follows: cytokine release.

Test [4] deals with T4, FRPD1 peptide on HLA-A*11:01 (human).
T4 peptide: KVAAADGPAR
Kind of test: cytokine release.

Test [5] concerns the target T5, KRAS wild type (10-mer) peptide on HLA-A*11:01 (human).
T5 peptide: VVVGAGGVGK
The test is described as follows: cytokine release.

Test [6] addresses T6, KI26A peptide on HLA-A*11:01 (human).
T6 peptide: PVAGPDGLSK
Kind of test: cytokine release.

Test [7] has as its target T7, GEM (also listed as SEQ ID NOs 82, 106, 130, 141) peptide on HLA-A*11:01 (human).
T7 peptide: AVFGAGGVGK
The test is described as follows: cytokine release.

For test [8], the target named is T8, ELP2 peptide on HLA-A*11:01 (human).
T8 peptide: VSAAADSAVR
The test is described as follows: cytokine release.

Test [9] concerns the target T9, DCAF7 peptide on HLA-A*11:01 (human).
T9 peptide: ASVGADGSVR
The test is described as follows: cytokine release.

Test [10] deals with T10, TUTLA (also listed as SEQ ID NO 134) peptide on HLA-A*11:01 (human).
T10 peptide: ISQGADGRGK
Kind of test: cytokine release.

Test [11] has as its target T11, INO80 peptide on HLA-A*11:01 (human).
T11 peptide: SSLAPDSLVR
Kind of test: cytokine release.

Test [12] has as its target T12, PRP4 peptide on HLA-A*11:01 (human).
T12 peptide: ASCAADGSVK
Kind of test: cytokine release.

Test [13] has as its target T13, COBA1 peptide on HLA-A*11:01 (human).
T13 peptide: GPAGQDGVGG
The test is described as follows: cytokine release.

Test [14] deals with T14, AGRIN peptide on HLA-A*11:01 (human).
T14 peptide: PVCGSDGVTY
The test is described as follows: cytokine release.

Test [15] has as its target T15, CO6A3 peptide on HLA-A*11:01 (human).
T15 peptide: GDDGRDGVGS
Kind of test: cytokine release.

The target of test [16] is T16, PRA19 peptide on HLA-A*11:01 (human).
T16 peptide: KLFISDGCGY
Kind of test: cytokine release.

Test [17] has as its target T17, ABCF1 peptide on HLA-A*11:01 (human).
T17 peptide: CIVGPNGVGK
The test is described as follows: cytokine release.

In test [18] the target is T18, SUCB2 peptide on HLA-A*11:01 (human).
T18 peptide: CAIIANGITK
Kind of test: cytokine release.

The target in test [19] is T19, SMC5 peptide on HLA-A*11:01 (human).
T19 peptide: MIVGANGTGK
The test is described as follows: cytokine release.

For test [20], the target named is T20, SO5A1 peptide on HLA-A*11:01 (human).
T20 peptide: PVCGSDGITY
Kind of test: cytokine release.

In test [21] the target is T21, SOCS7 peptide on HLA-A*11:01 (human).
T21 peptide: GSGGGDGTGK
Kind of test: cytokine release.

Test [22] deals with T22, MEIS2 peptide on HLA-A*11:01 (human).
T22 peptide: HYGGMDGVGV
The test is described as follows: cytokine release.

Test [23] deals with T23, MEIS1 peptide on HLA-A*11:01 (human).
T23 peptide: HYGGMDGVGI
The test is described as follows: cytokine release.

Test [24] addresses T24, IBP7 peptide on HLA-A*11:01 (human).
T24 peptide: PVCGSDGTTY
Kind of test: cytokine release.

Test [25] addresses T25, SO3A1 peptide on HLA-A*11:01 (human).
T25 peptide: PVCGADGITY
The test is described as follows: cytokine release.

Test [26] deals with T26, CGAT2 peptide on HLA-A*11:01 (human).
T26 peptide: RNVGANGIGY
The test is described as follows: cytokine release.

The target of test [27] is T27, COIA1 peptide on HLA-A*11:01 (human).
T27 peptide: GDPGKDGVGQ
Kind of test: cytokine release.

Test [28] concerns the target T28, USH1G peptide on HLA-A*11:01 (human).
T28 peptide: EDGGLDGVGA
Kind of test: cytokine release.

Test [29] has as its target T29, PUR2 peptide on HLA-A*11:01 (human).
T29 peptide: LASGTDGVGT
Kind of test: cytokine release.

In test [30] the target is T30, DNHD1 peptide on HLA-A*11:01 (human).
T30 peptide: TVLGPNGVGK
Kind of test: cytokine release.

Test [31] concerns the target T31, CO8A2 peptide on HLA-A*11:01 (human).
T31 peptide: GPPGVDGVGV
The test is described as follows: cytokine release.

Test [32] has as its target T32, BY55 peptide on HLA-A*11:01 (human).
T32 peptide: RDPGIDGVGE
The test is described as follows: cytokine release.

Test [33] deals with T33, NLRP9 peptide on HLA-A*11:01 (human).
T33 peptide: VLEGPDGIGK
Kind of test: cytokine release.

In test [34] the target is T34, EFGM peptide on HLA-A*11:01 (human).
T34 peptide: EVKGKDGVGA
Kind of test: cytokine release.

B1: TCR 5 (TCR, V domains shown)
Valpha: GEDVEQSLFLSVREGDSSVINCTYTDSSSTYLYWYKQEPGAGLQLLTYIFSNMDMKQDQRLTVLLNKKDKHLSLRIADTQTGDSAIYFCAERDAGNNRKLIWGLGTSLAVNP
Vbeta: GAGVSQSPRYKVAKRGQDVALRCDPISGHVSLFWYQQALGQGPEFLTYFQNEAQLDKSGLPSDRFFAERPEGSVSTLKIQRTQQEDSAVYLCASSLEGGDTQYFGPGTRLTVL
For B1, the binding result in test [1] was “recognises”; in [2] it was “no recognition”; in test [3], “no recognition”; in test [4] it was “no recognition”; in test [5], “no recognition”; in [6], “no recognition”. The binding result in test [7], in test [8], in test [9], in test [10], in test [11] and in [12] was “no recognition” in each case.

B2: TCR 4 (TCR, V domains shown)
Valpha: QKEVEQDPGPLSVPEGAIVSLNCTYSNSAFQYFMWYRQYSRKGPELLMYTYSSGNKEDGRFTAQVDKSSKYISLFIRDSQPSDSATYLCAMGALNSGAGSYQLTFGKGTKLSVIP
Vbeta: KAGVTQTPRYLIKTRGQQVTLSCSPISGHRSVSWYQQTPGQGLQFLFEYFSETQRNKGNFPGRFSGRQFSNSRSEMNVSTLELGDSALYLCASSLSSGTGTEAFFGQGTRLTVV
Take B2: the binding result is listed as “recognises” in test [1]; “no recognition” in test [13]; “no recognition” in test [14]; “no recognition” in test [15]; “no recognition” in test [16]; “no recognition” in test [17]. Further, the binding result in test [18], in test [19], in test [5], in test [20], in test [21] and in test [22] was “no recognition” in each case. Moreover, the binding result in test [23], in test [7], in [24], in test [25], in test [26] and in test [27] was “no recognition” each time. Moreover, the binding result in [28], in test [29], in test [30], in test [31], in test [32] and in [33] was “no recognition” each time. In test [34], the binding result is “no recognition”.
